Source: patent US20140105905A1 (Amgen, published 2014)
Positions count from the first letter of the chain named.

T1: recombinant human Interleukin-8 (human, UniProt P10145 28-99)
T1 construct: also called rhIL-8; IL-8
T1 sequence (looked up): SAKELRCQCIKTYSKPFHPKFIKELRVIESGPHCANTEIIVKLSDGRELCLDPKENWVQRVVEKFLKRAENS

T2: IL-8 peptide ELRCQCIKTYSK (human)
T2 peptide: ELRCQCIKTYSK

B1: anti-hIL-8 mAb 33 (antibody, human IgG2, V domains shown)
VH: QVQLQQWGAGLLKPSETLSLTCAVYGGFFSGYYWSWIRQPPGKGLEWIGEINHSGSTNYNPSLKSRVTISVDTSKNQFSLKLISVTAADTAVYYCARGSAAEAFDIWGQGTMVTVSS
VL: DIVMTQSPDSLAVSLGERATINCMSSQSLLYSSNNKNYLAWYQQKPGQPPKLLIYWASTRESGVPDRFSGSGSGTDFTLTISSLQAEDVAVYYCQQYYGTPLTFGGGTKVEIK
notes: also called antibody number 33
B2: anti-hIL-8 mAb 469 (antibody, human IgG2, V domains shown)
VH: EVQLLESGGGLVQPGGSLRLSCAASGFTFSSYVMSWVRQAPGKGLEWVSAINNSGGSTDYADSVKGRFTISRDNSKNTLYLQMNSLRAEDTAVYYCAKEGRFLEWSLYGLDVWGQGTTVTVSS
VL: DIQMTQSPSSLSASVGDRVTIACRASQGIRNDLGWYQQKPGKAPKRLIYAASSLQSGVPSRFGGSGSGTEFTLTISSLQPEDFATYYCLQHNSYPRTFGQGTKVEIK
notes: also called antibody number 469
B3: anti-hIL-8 mAb 809 (antibody, human IgG2, V domains shown)
VH: QVQLVESGGGVVQPGRSLRLSCAASGFTFSSYGMLWVRQAPGKGLEWVADISYDGSNKYYADSVKGRFTISRDNSKNTLFLQMNSLRAEDTAVYYCARDRIAVADYWGQGTLVTVSS
VL: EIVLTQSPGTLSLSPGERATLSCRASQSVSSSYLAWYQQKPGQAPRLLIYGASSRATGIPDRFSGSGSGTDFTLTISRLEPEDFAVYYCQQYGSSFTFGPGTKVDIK
notes: also called clone 6G11
B4: anti-hIL-8 mAb 837 (antibody, human IgG2, V domains shown)
VH: QVQLQQWGAGLLKPSETLSLTCAVFGGTFSGYYWTWIRQPPGKGLEWIGEVIHHGSTNYSPSLKSRVTISADTSKSQFSLRLSSVTAADTAVYYCARGGAAAALDSWGQGTLVIVSS
VL: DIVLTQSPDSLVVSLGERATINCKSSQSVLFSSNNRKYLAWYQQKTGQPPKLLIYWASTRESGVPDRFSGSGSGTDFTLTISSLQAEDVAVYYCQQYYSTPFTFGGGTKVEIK
notes: also called clone 36C6; ABXha-IL-8
B5: anti-hIL-8 mAb 1093 (antibody, human IgG2, V domains shown)
VH: B4 VH with T28S, V51I, A103G, I114T
VL: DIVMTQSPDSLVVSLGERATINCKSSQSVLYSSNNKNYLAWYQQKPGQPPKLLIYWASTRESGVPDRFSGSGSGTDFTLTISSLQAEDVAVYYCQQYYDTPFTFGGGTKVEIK
notes: also called antibody number 1093
B6: anti-hIL-8 mAb 861 (antibody, human IgG2, V domains shown)
VH: QVQLVESGGGVVQPGRSLRLSCAASGFTFSNYGMHWVRQAPGKGLEWVAVIYFEGSNKYNADSVKGRFTISRDNSKNTLYLQMNSLRAEDTAVYYCARSPYGDYLDYWGQGTLVTVSS
VL: EIVLTQSPGTLSLSPGERATLSCRASQTIDYNYLHWYQQKPGQAPRLLIYGTFIRATVIPDRFSGSGSGTDFTLTISRLEPEDIAVYYCQQFGRSPLTFGGGTKVEIK
notes: also called antibody number 861
B7: anti-hIL-8 mAb 1080 (antibody, human IgG2, V domains shown)
VH: QVQLQQWGAGLLKPSESLSLTCAVYGGSFFSGYYWSWIRQPPGKGLEWIGEITHSGNTNYNPSLKSRVSISVDTSTNQFSLKLSSVTAADTAVYYCGRGGAEVGFDYWGQGTLVTVSS
VL: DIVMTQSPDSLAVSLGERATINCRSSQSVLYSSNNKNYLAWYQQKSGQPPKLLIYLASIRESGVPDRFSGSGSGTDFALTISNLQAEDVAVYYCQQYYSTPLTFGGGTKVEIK
B8: anti-hIL-8 mAb 142 (antibody, human IgG2, V domains shown)
VH: QVQLVQSGAEVKKPGASVKVSCKASGYTFTGYYMHWVRQAPGQGLEWMGWINSNSGGTNYSQKFQGRVTMTRDTSISTVYMELSRLRSDDTAVYYCASGYSYGYRYYYYGMDVWGQGTTVTVSS
VL: DIQMTQSPSSLSASVGDRVTITCRASQGISNSLAWYQQKPGKVPNLLIYAASTLQSGVPSRFSGSGSGTDFTLTISSLQPEDVATYYCQKYNSVPLTFGGGTKVEIK
notes: also called antibody number 142
B9: anti-hIL-8 mAb 203 (antibody, human IgG2, V domains shown)
VH: B8 VH with M34I, Y60F, S61A, V79A, S88P, S101R
VL: B8 VL with N45K, K107N
notes: also called antibody number 203

Tests used:
[1] = target: T1, recombinant human Interleukin-8; assay: KinExA equilibrium in solution, 36 h, mAb 10 pM
Protocol: (§1) The experiments with KinExA were performed using an automated flow immunoassay system, KinExA 3000 [Ohmura et al., Anal. Chem. 73:3392, 2001] in which rhIL-8-coupled beads served as the solid phase. […] Antigen/antibody complexes were incubated at RT for 36 h to 144 h to allow equilibrium to be reached. The mixture was drawn through the rhIL-8-coupled beads to accumulate unbound antibody. The captured anti-hIL-8 mAb is directly proportional to the remaining free binding sites and was detected using solutions containing Cy5-conjugated anti-human secondary antibody in sample buffer. The concentrations, volumes, and flow rates of the secondary antibody solutions were varied to optimize the signal to noise ratio in each experiment. The bound signals were converted into relative values as a proportion of control in the absence of rhIL-8. The equilibrium dissociation constant (Kd) was obtained from nonlinear regression analysis of the data using a one-site homogeneous binding model contained within the software [Blake et Al., Anal. Biochem. 272:123, 1999; Jones et al., Bioconjug Chem 13:408, 2002]. […]
(§2) A proportionate amount of free mAb present in the equilibrium mixture was measured by flowing 0.25 ml to 3 ml of the sample on rhIL-8 coupled to CNBr-activated Sepharose beads and detected using 1.0 ml of 1.7 μg/ml of Cy5-labeled goat anti-human IgG Fcγ fragment-specific secondary antibody. […]

[2] = target: T1, recombinant human Interleukin-8; assay: KinExA equilibrium in solution, 36 h, mAb 200 pM
Protocol: as §1, §2

[3] = target: T1, recombinant human Interleukin-8; assay: calculated from KinExA kon and Kd
Description: (§3) For measuring the association rate constant using KinExA, the same rhIL-8-coupled beads were used as the probe and the “Kinetics, Direct” method was used. The “Kinetics, Direct” experiments by KinExA are identical to KinExA equilibrium assays with respect to bead column height, antibody capture, antibody concentration and antibody detection. Briefly, the mAb was mixed with an amount of antigen that bound approximately 80% of the mAb in the equilibrium experiments and the free antibody present in the sample was probed repeatedly, pre-equilibrium. […] The volumes and flow rates of the antigen-mAb mixtures and the Cy5-labeled secondary antibody were varied depending upon the mAb tested. Data was analyzed utilizing the KinExA analysis software that comes with the KinExA 3000 instrument. This software graphically represents the decrease in binding signals over time, and fits the collected data points to an exact solution of the kinetic differential equations for binding. From this curve, an optimal solution for the kₒₙ is determined. The koff is indirectly calculated from solutions for the kₒₙ and Kd.
(§4) The on-rate measurement by KinExA is not limited by the mAb concentration used in the experiment. […] The concentration of mAb used for on-rate experiments was the same as those used in equilibrium binding experiments. An amount of IL-8 that bound 80% of the mAb in equilibrium binding experiments was mixed with the mAb. The amount of free mAb left in the mixture was measured in KinExA by flowing 1 ml of the mixture repeatedly through rhIL-8 coupled to NHS-activated Sepharose beads and detected using 1 ml of 2.0 μg/ml of Cy5-labeled goat anti-human IgG Fcγ fragment-specific secondary antibody. The kₒₙ was measured using the KinExA software by the “Kinetic, Direct” method and the 95% confidence intervals are given as kₒₙ range. The koff for the mAb was calculated from the measured kₒₙ and Kd of the respective mAb.

[4] = target: T1, recombinant human Interleukin-8; assay: not named in this sentence (summary of the filing's own affinity results)
[5] = target: T1, recombinant human Interleukin-8; assay: KinExA equilibrium in solution, 36 h, mAb 23 pM
Protocol: as §1, §2

[6] = target: T1, recombinant human Interleukin-8; assay: KinExA equilibrium, optimized, n-curve analysis, mAb 4.6 and 27 pM
Description: (§5) The mixture was drawn through the rhIL-8-coupled beads to accumulate unbound antibody. The captured anti-hIL-8 mAb is directly proportional to the remaining free binding sites and was detected using solutions containing Cy5-conjugated anti-human secondary antibody in sample buffer. The concentrations, volumes, and flow rates of the secondary antibody solutions were varied to optimize the signal to noise ratio in each experiment. The bound signals were converted into relative values as a proportion of control in the absence of rhIL-8. The equilibrium dissociation constant (Kd) was obtained from nonlinear regression analysis of the data using a one-site homogeneous binding model contained within the software [Blake et Al., Anal. Biochem. 272:123, 1999; Jones et al., Bioconjug Chem 13:408, 2002]. […]
(§6) A proportionate amount of free mAb present in the equilibrium mixture was measured in KinExA under optimized conditions. For example, for the mixtures containing the low concentration of mAb, 18-36 ml of the sample was flown through rhIL-8 coupled to NHS-activated Sepharose beads and detected using 1-2 ml of 2.0 μg/ml of Cy5-labeled goat anti-human IgG Fcγ fragment-specific secondary antibody. The Kd was calculated using KinExA software by using the “n-curve analysis” selection.

[7] = target: T1, recombinant human Interleukin-8; assay: KinExA "Kinetics, Direct" method
Description: as §3, §4

[8] = target: T2, IL-8 peptide ELRCQCIKTYSK; assay: overlapping IL-8 peptides on a membrane; column "Recognized epitope"
Protocol: Briefly, overlapping IL-8 peptides, which were each two amino acids c-terminal to the previous peptide (as shown in FIG. 8) were prepared and attached to a membrane. Antibodies were then added and allowed to bind to the peptides.

[9] = target: T1, recombinant human Interleukin-8; assay: KinExA equilibrium in solution, 36 h, mAb 90 pM
Protocol: as §1, §2

[10] = target: T1, recombinant human Interleukin-8; assay: KinExA equilibrium, optimized, n-curve analysis, mAb 18 and 120 pM
Description: as §5, §6

[11] = target: T1, recombinant human Interleukin-8; assay: KinExA equilibrium in solution, 36 h, mAb 100 pM
Protocol: as §1, §2

[12] = target: T1, recombinant human Interleukin-8; assay: KinExA equilibrium, optimized, n-curve analysis, mAb 1.3 and 13 pM
Description: as §5, §6

[13] = target: T1, recombinant human Interleukin-8; assay: KinExA equilibrium in solution, 36 h, mAb 25 pM
Protocol: The experiments with KinExA were performed using an automated flow immunoassay system, KinExA 3000 [Ohmura et al., Anal. Chem. 73:3392, 2001] in which rhIL-8-coupled beads served as the solid phase. […] Antigen/antibody complexes were incubated at RT for 36 h to 144 h to allow equilibrium to be reached. The mixture was drawn through the rhIL-8-coupled beads to accumulate unbound antibody. The captured anti-hIL-8 mAb is directly proportional to the remaining free binding sites and was detected using solutions containing Cy5-conjugated anti-human secondary antibody in sample buffer. The concentrations, volumes, and flow rates of the secondary antibody solutions were varied to optimize the signal to noise ratio in each experiment. The bound signals were converted into relative values as a proportion of control in the absence of rhIL-8. The equilibrium dissociation constant (Kd) was obtained from nonlinear regression analysis of the data using a one-site homogeneous binding model contained within the software [Blake et Al., Anal. Biochem. 272:123, 1999; Jones et al., Bioconjug Chem 13:408, 2002]. The software calculates the Kd and determines the 95% confidence interval by fitting the data points to a theoretical Kd curve. The 95% confidence interval is given as Kd low and Kd high.
A proportionate amount of free mAb present in the equilibrium mixture was measured by flowing 0.25 ml to 3 ml of the sample on rhIL-8 coupled to CNBr-activated Sepharose beads and detected using 1.0 ml of 1.7 μg/ml of Cy5-labeled goat anti-human IgG Fcγ fragment-specific secondary antibody. Each sample was run in triplicate. The Kd was calculated by the KinExA software and the 95% confidence interval is given as the Kd range.

Binder | koff [3] [s⁻¹] | Kd [4] [nM] | kon [7] [M⁻¹ s⁻¹] | Kd [13] [nM] | further results
B1 | – | – | – | – | Kd [1]: 0.28 nM
B2 | – | – | – | – | Kd [2]: 0.87 nM
B3 | 1.6e-05 | ~0.00223 | 4.8e+06 | – | Kd [5]: 0.0022 nM; Kd [6]: 0.00329 nM; binding result [8]: binds
B4 | 1.9e-05 | ~0.0109 | 1.1e+06 | – | Kd [9]: 0.011 nM; binding result [8]: binds; Kd [10]: 0.0157 nM
B5 | – | – | – | – | Kd [11]: 0.2 nM
B6 | 1.3e-05 | ~0.00289 | 4.4e+06 | 0.0029 | Kd [12]: 0.003 nM
B7 | – | – | – | 0.63 | –
B8 | – | – | – | 0.4 | –
B9 | – | – | – | 0.19 | –
